Source: patent publication US20180111972A1 (Stanford University, published 2018)

Assays:
[1] = biological target: T1, VEGFR2-His (residues 1-764 of VEGFR2, Ig-like domains 1-7, with hexahistidine tag) (human, UniProt P35968 20-764); test: yeast surface display titration, flow cytometry
T1 construct: range 1-764; Monomeric form, expressed in FreeStyle 293-F cells; also called VEGFR-His
Protocol: (§1) Cells were incubated in large enough volumes to avoid ligand depletion and appropriate time to reach equilibrium. During the last hour of incubation, yeast were incubated with 1:250 dilution of chicken anti-c-Myc (Invitrogen) in PBSA. […] Yeast were washed, pelleted, and resuspended in PBSA immediately before analysis by flow cytometry using BD FACSCalibur or BD Accuri C6. Flow cytometry data were analyzed using FlowJo (v7.6.1 and v10, Treestar) or BD Accuri C6 software. Statistical analysis was performed using GraphPad Prism 6.

[2] = biological target: T2, PDGFRβ-His (residues 1-314 of PDGFR-β with C-terminal hexahistidine tag) (human, UniProt P09619 33-314); test: yeast surface display titration, flow cytometry
T2 construct: range 1-314; Monovalent form, expressed in FreeStyle 293-F cells; also called PDGRβ-His; PDGFR-His
Protocol: as §1

[3] = biological target: T1, VEGFR2-His (residues 1-764 of VEGFR2, …); test: yeast surface display, flow cytometry equilibrium titration of VEGFR2-His, normalized fluorescence
Protocol: as §1

[4] = biological target: T2, PDGFRβ-His (residues 1-314 of PDGFR-β …); test: yeast surface display, flow cytometry equilibrium titration of PDGFRβ-His (panel 'PDGFR-His'), normalized fluorescence
Protocol: as §1

VEGFR2-Fc (R&D Systems) = biological target: T3, VEGFR2-Fc (R&D Systems) (human, UniProt P35968 20-764); test: yeast surface display, flow cytometry titration of VEGFR2-Fc
T3 construct: extracellular domain; Bought reagent; also called VEGFR-Fc; not shown: Fc part, detected with anti-human-IgG (Fc specific)
Protocol: as §1

T1 sequence (P35968 other isoform, or with tags, fused parts or gaps limits assumed, form in doubt): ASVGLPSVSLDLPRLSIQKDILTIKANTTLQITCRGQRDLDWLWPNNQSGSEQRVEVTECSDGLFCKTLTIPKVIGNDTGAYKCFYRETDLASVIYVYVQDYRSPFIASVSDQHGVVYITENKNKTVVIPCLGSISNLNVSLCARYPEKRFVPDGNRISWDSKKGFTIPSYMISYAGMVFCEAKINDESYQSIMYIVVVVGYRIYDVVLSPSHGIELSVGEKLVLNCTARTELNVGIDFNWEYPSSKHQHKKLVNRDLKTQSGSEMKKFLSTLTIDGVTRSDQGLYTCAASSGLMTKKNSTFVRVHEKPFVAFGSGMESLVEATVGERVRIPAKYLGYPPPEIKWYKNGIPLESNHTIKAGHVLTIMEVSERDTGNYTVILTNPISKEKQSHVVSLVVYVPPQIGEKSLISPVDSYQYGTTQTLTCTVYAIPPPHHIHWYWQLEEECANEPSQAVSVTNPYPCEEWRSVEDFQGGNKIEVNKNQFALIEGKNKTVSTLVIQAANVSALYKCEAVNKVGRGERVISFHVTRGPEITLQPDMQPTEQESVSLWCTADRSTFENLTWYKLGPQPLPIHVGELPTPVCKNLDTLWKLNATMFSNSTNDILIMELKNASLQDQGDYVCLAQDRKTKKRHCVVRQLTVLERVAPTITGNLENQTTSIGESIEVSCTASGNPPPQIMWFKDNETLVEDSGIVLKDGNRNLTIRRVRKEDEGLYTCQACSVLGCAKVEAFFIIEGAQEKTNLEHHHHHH
T2 sequence (P09619 other isoform, or with tags, fused parts or gaps limits assumed, form in doubt): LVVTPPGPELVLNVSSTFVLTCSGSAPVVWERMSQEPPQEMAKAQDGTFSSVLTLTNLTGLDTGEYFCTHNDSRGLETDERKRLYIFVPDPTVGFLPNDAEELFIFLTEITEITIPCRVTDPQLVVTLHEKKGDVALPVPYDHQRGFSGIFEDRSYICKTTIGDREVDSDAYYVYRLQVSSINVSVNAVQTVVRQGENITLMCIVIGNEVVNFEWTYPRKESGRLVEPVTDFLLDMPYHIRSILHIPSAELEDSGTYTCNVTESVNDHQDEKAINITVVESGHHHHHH
T3 sequence (P35968 20-764): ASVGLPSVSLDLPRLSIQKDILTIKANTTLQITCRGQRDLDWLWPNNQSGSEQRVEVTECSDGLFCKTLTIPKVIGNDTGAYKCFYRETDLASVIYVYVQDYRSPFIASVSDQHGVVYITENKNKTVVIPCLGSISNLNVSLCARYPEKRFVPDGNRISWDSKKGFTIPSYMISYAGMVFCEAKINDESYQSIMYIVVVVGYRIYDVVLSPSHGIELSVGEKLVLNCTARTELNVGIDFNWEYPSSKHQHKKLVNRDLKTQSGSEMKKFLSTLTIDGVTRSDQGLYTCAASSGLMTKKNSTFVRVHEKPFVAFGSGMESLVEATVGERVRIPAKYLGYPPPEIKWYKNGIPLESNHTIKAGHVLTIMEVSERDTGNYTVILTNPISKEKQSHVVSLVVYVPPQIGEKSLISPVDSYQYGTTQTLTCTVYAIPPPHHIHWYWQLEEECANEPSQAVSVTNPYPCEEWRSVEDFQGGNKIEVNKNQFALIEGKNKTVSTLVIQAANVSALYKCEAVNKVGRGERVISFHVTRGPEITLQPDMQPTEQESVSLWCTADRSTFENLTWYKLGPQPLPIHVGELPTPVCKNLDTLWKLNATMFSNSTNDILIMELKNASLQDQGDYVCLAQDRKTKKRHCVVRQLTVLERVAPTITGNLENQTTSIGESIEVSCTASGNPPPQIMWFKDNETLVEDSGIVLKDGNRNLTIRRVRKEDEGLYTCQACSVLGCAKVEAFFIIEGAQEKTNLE

B1: PVGS, yeast-displayed (designed binder)
chain: IAEPAMIAECHPIETLVDILQEYPDEIGYIFKPSCVPLMRCGGCCNNRNVQCRPTEESNITMQIMRIKPHRGQHIGEMSFLQHNKCRCETVAAGGGGSGGGGSGGGGSGGGGSEVVKFMDVYQRSYCKTRTEVFEISRRLIDATNANFLVWPPCVEVQRCSGCCNHEGLECVPTQVQLRPVQVRKIEFVRKKPIFKKATVTLEDHLACECRPKKD
- Kd [1]: 1.1 nM
- Kd [2]: 0.25 nM
- EC50 (read off the curve) [3]: ~1 nM
- EC50 (read off the curve) [4]: ~0.3 nM

B2: V5-5, yeast-displayed variant from the Vshuf library (designed binder)
chain: IAEPAVIAECHPIETLVDILQEYPDEIGYIFKPSCVPLMRCGGCCNNRNVQCRPTEESNITMQIMRIKPHRGQHIGEMSFLQHNKCKCETVAAGSTSGSGKSSEGKGEVVKFMDVYQRSYCKTRTEVFEISRRLIDRTNANFLVWPPCVEVQRCSGCCNHEGLECVPTQVQLRPVQVRKIEIVRKKPIFKKATVTLEDHLACECRPKKV
- binding result (VEGFR2-Fc (R&D Systems)): binds
